The source of these data is paper PMC5581337.

The experiment addresses HA-NRX2αS1(+) S2(+) S3(+) S4(−) (extracellularly HA-tagged neurexin2α without the insert at splice site 4) (mouse) (UniProt E9Q7X7). Briefly: cell surface binding assay; Scatchard plot analysis of IgSF21-Fc bound to COS-7 cells expressing HA-NRX2αS4(-), n = 30 cells.

Consider “IgSF21-Fc (ectodomain of rat IgSF21 fused to the human immunoglobulin Fc region) (from UniProt M0RAS4 25-448) (Fc fusion)”, for which the Kd (usually the equilibrium constant for the complex coming apart) was found to be 0.021 µM.
